In US6632672:

Target: T1, phiC31 integrase (Streptomyces phage phiC31) (UniProt Q9T221)
T1 sequence: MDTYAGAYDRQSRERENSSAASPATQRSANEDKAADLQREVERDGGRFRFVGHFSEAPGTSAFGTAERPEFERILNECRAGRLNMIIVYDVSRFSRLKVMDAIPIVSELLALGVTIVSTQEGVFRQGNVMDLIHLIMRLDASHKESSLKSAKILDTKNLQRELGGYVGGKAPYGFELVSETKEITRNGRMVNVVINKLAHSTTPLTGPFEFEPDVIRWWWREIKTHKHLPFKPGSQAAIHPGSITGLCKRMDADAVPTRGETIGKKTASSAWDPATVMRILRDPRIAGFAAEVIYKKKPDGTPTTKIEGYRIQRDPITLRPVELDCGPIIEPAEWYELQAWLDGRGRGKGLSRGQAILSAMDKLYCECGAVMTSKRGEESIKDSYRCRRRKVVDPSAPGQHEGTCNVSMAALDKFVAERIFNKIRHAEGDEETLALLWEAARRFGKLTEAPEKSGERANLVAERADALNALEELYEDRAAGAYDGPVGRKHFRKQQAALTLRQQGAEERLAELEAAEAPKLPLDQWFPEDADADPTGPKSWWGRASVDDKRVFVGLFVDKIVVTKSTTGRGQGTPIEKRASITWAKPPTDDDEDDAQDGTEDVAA
Assay: cell_activity

Work on attP full length (221 bp) yielded an activity (intramolecular attB x attP recombination in human 293 cells, SE 2.32%, 16 experiments) of 50.6% and an activity (intramolecular integration with attB in E. coli, all colonies white) of 100%.
In the case of attB full length (pBCPB+), the activity (bimolecular integration of attP donor into EBV plasmid in human 293 cells, corrected for transfection) is reported as 7.5% and the activity (intramolecular integration with attP in E. coli, all colonies white) is reported as 100%.
attB34 was tested, and the binding signal (E. coli, relative to full-length attB) was 100%.
